Our source for the percent bound values is US20210347870A1.

The target of the test is mesothelin on MIA PaCa2-MSLN cells (mesothelin-overexpressing human pancreatic cancer cell line) (UniProt Q13421). As to the kind of experiment: flow cytometry: 1 µg scFv on 1x10^5 MIA PaCa2-MSLN cells, anti-6X His tag antibody detection. (In general: Flow cytometry measures light scatter and fluorescence of single cells or particles in a stream.)
Chain of UniProt Q13421 (Q13421 other isoform, or with tags, fused parts or gaps limits assumed): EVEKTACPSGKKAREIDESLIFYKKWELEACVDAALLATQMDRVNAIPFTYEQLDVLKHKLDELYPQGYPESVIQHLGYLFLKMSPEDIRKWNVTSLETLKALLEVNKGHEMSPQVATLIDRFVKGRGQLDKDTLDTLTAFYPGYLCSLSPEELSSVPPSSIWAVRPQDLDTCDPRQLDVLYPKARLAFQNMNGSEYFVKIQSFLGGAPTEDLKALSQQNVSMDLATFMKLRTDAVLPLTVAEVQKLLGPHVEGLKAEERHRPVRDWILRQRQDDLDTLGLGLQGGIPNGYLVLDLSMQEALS

B1: C2G4 scFv protein (scFv)
scFv: EVQLLESGGGLVQPGGSLRLSCAASGFTFSNYAMSWVRQAPGKGLEWVSGIPPDSGSKYYADSVRGRFTVSRDNSKNTLYLQMNSLRAEDTAVYYCAKNMLSFDYWGQGTLVTVSSGGGGSGGGGSGGGGSQSVLTQPPSASGTPGQRVTISCTGSSSNIGSNAVSWYQQLPGTAPKLLIYYNSKRPSGVPDRFSGSKSGTSASLAISGLRSEDEADYYCGSWDPSLNGYVFGGGTKVTVLG
Regarding B1, the percent bound is > 68%.

B2: MS501 scFv protein (scFv)
scFv: EVQLLESGGGLVQPGGSLRLSCAASGFTFSNYAMSWVRQAPGKGLEWVSGIYPDSGSTYYADSVKGRFTISRDNSKNTLYLQMNSLRAEDTAVYYCARNIYTFDYWGQGTLVTVSSGGGGSGGGGSGGGGSQSVLTQPPSASGTPGQRVTISCSGSSSNIGSNAVSWYQQLPGTAPKLLIYYNNQRPSGVPDRFSGSKSGTSASLAISGLRSEDEADYYCGSWDSSLSGYVFGGGTKLTVLG
Regarding B2, the percent bound is > 68%.

B3: MS503 scFv protein (scFv)
scFv: EVQLLESGGGLVQPGGSLRLSCAASGFTFSNYAMSWVRQAPGKGLEWVSSIYPGDGSTYYADSVKGRFTISRDNSKNTLYLQMNSLRAEDTAVYYCAKNAFTFDYWGQGTLVTVSSGGGGSGGGGSGGGGSQSVLTQPPSASGTPGQRVTISCSGSSSNIGSNAVSWYQQLPGTAPKLLIYYNSHRPSGVPDRFSGSKSGTSASLAISGLRSEDEADYYCGTWDSSLSGYVFGGGTKLTVLG
Regarding B3, the percent bound is > 68%.
